# Reference: US20240084003A1 (SIMCERE ZAIMING PHARMACEUTICAL, published 2024)
# Substitutions are numbered along the chain they refer to.
# T1: human CD22 domain5-7-His (human, UniProt P20273 414-687)
# T1 construct: also called hCD22 domain5-7-His; not shown: His tag
# T1 sequence: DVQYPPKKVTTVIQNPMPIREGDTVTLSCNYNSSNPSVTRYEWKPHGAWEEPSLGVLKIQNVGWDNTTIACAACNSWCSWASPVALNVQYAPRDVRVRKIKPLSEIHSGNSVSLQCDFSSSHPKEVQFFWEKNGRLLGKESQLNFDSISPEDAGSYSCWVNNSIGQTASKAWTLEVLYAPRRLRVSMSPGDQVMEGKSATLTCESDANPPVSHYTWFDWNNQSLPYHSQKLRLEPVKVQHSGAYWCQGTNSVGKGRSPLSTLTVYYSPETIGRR
# T2: human CD22-ECD-His protein (human, UniProt P20273 20-687)
# T2 construct: Recombinant, from HEK293E cells; also called hCD22-ECD-His; human CD22-His protein; not shown: His tag
# T2 sequence: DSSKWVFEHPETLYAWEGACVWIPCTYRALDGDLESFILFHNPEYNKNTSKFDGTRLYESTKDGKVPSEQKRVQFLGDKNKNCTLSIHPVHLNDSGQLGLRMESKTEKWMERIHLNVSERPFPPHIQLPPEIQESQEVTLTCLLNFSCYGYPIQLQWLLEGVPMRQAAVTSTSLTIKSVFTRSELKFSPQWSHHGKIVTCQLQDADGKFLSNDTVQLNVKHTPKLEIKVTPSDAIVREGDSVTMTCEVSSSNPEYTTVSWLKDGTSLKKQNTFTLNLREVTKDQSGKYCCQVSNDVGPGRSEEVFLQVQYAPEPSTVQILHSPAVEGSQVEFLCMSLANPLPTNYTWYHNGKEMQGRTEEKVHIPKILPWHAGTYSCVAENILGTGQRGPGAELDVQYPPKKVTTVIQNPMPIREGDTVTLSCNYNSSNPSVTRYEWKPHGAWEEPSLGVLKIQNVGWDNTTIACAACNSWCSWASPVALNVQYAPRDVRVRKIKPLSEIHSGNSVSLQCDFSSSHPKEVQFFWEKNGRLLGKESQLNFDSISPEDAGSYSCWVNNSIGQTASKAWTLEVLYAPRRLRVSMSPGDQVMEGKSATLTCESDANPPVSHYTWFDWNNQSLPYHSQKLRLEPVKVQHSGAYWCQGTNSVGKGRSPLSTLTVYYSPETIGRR
# B1: F1.231.15 (antibody, IgG1, V domains shown)
# VH: QVQLQQPGAELVKPGASVKLSCKTSGYTFTIYWMQWVKQRPGRGLEWIGRIDPHSGDTHYNENFTTKVTLTVDETSNTAYMHLSGLTSEDSAVYYCARRDYSYYVLDYWGQGTSVTVSS
# VL: DVVLTQTPLSLPVSLGDQASISCRSSQSLVHINGDTYLHWYLQKPGQSPKLLIYTVFNRFSGVPDRFSGSGSGTDFTLKISRVEAEDLGAYFCSQSTHVPYTFGGGTKLEIKR
# notes: Chimeric IgG1 kappa
# B2: F2.70.2 (antibody, human IgG1, lambda, V domains shown)
# VH: EVQLVESGGGLVKPGGSLKLSCAASGFTFSDYGMNWFRQAPEKGLEWVAYISRGSHTIYYADTVKGRFTISRDNAKNTLFLQMTSLRSNDTAMYYCVRMAGYYAMDYWGQGTSVTVSS
# VL: QLVLTQSSSASFSLGASAKLTCTLSSQHSSYIIEWYQQQPLKPPKYVMELKKDGSHSTGDGIPDRFSGSSSGADRYLSISNIQPEDEAIYICGVGDTIKEQFVYVFGGGTKVTVLG
# notes: Chimeric IgG1 lambda
# B3: F2.127.11 (antibody, human IgG1, lambda, V domains shown)
# VH: QVTLKESGPGILQPSQTLSLTCSFSGFSLSTFGMGVGWIRQPSGKGLEWLAHIWWDDDKHYNPALKSRLTISKDTSRNQVFLKIANVDTADGATYFCARDNWVSSLDYWGQGTSVIVSS
# VL: B2 VL with L2P, L4I, K19E, S30T, I32T, E49G, G95S
# notes: Chimeric IgG1 lambda
# B4: F2.104.10 (antibody, human IgG1, lambda, V domains shown)
# VH: B2 VH with L11F, K76E, V114L
# VL: B2 VL with L50V, P84S
# notes: Chimeric IgG1 lambda
# B5: F2.121.9 (antibody, human IgG1, lambda, V domains shown)
# VH: EVQLVESGGGLVKPGGSLKLSCAASGFTFSDYVMSWIRQTPEKRLEWVATISDAGSYTFYPDNLKGRFTISRDNAKNNLYLQMNHLTSEDTAFYYCAIIYFGNYGGYWGQGTLVTVSV
# VL: QAVVTQESALTTSPGGTVVLTCRSNTGAVTTSNYANWVQEKPDHLFTGLIGGTSNRAPGVPVRFSGSLIGDKAALTITGAQTEDDAMYFCALWYSTHWVFGGGTKLTVLG
# notes: Chimeric IgG1 lambda
# B6: F1.7.6 (antibody, human IgG1, kappa, V domains shown)
# VH: EIQLQQSGPELVKPGTSVKVSCKASGYDFTRYNMYWVKQSHGKSLEWIGYIDPYNGDTRYNQKFKGKATLTVDKSSSTAYMHLNSLTSEDSAVYYCEAIYYDMEGYALDYWGQGTSVTVSS
# VL: DIVMSQSPSSLAVSVGEKVTMSCKSSQSLLYSNNQKNYLAWYQQKPGQSPKKLIYWASTRESGVPDRLTGSGSGTDFTLTISSVTAEDLAVYYCQQFYSYPWTFGGGTKLEIKR
# notes: Chimeric IgG1 kappa
# B7: F1.280.1 (antibody, human IgG1, kappa, V domains shown)
# VH: QIQLVQSGPELKKPGETVKISCKASGYTFTTYGMSWVKQTPGKGLTWMGWINTDSGVPTYADDFKRRFAFSLEASATTAYLQINNLKNEDTATYFCARGGPDYWGQGTTLTVSS
# VL: DILLTQSPATLSVTPGETVSLSCRASQSIYKNLHWYHQKSHRSPRLLIKYASDSISGIPSRFTGSGSGTNFTLSINSVKPEDEGIYYCLQGYIVPLTFGAGTKLELKR
# notes: Chimeric IgG1 kappa
# B8: F1.62.10 (antibody, human IgG1, kappa, V domains shown)
# VH: QVQLQQSGPELVKPGASVKISCKASGYEFSSIWMNWVKQRPGEGLEWIGRIFPGDGEINYNEKFKGKATLTADRSSTTAYMQLSSLTSEDSAVYFCAGWRIYYGTYGAMDYWGQGTSVTVSS
# VL: DIQMTQITSSLSASLGDRVTISCRASQDIGNYLNWYQQKPDGTVKLLIYYTSRLHSGVPSRFSGSGSRTDYSLTISNLQQEDIATYFCQQGNTLPWTFGGGTKLEIKR
# notes: Chimeric IgG1 kappa
# B9: F1.161.7 (antibody, human IgG1, kappa, V domains shown)
# VH: QVQLQQPGAELVKPGASVKMSCKASGYTFTSYWISWVKQRPGQGLEWIGDIYPGTGSSNYNEKFKSKATLTVDTSSSTAYMQLSSLTSEDSAVYYCARLKFEGIGYWGQGTTLTVSS
# VL: QIVLTQSPAIMSASLGEEITLTCSASSSVSYMHWFQQKSGTSPKLLIYSISNLASGVPSRFSGSGSGTFYSLTISSVEAEDAADYYCHQWSSYPWTFGGGTKLEIKR
# notes: Chimeric IgG1 kappa
# B10: F2.55.1 (antibody, human IgG1, lambda, V domains shown)
# VH: QVTLKESGPGILQPSQTLSLTCSFSGFSLSTFPLGVGWIRQPSGKGLEWLAHVWWNDDDYYNPALKSRLTISKDTSNTRVFLSVASVDTAETATYYCARLNWDRWYFDVWGTGTTVTVSS
# VL: QLVLTQSSSASFSLGASAKLTCTLSSQHSAYTVEWYQQQPLKPPKYVMELKKDGSHSTGDGIPDRFSGSSSGADRYLSISNIQPEDEAIYICGVGDTVKEQFVFGGGTKVTVLG
# notes: Chimeric IgG1 lambda
# B11: F2.42.9 (antibody, human IgG1, lambda, V domains shown)
# VH: QVTLKESGPGILQPSQTLSLTCSFSGFSLSTFDRGVGWIRQPSGKGLEWLAHIWWNDKKFYNPVLKSRLTISKDTSKNQVFLTIANVDSADTATYSCARIVWDKYYFDYWGQGIPLTVSS
# VL: B10 VL with V33I, Y46F, E49D, D64A, S78T, V98I, F102Y
# notes: Chimeric IgG1 lambda
# B12: F1.245.2 (antibody, human IgG1, kappa, V domains shown)
# VH: EVQLQQSGAELVKPGASVKLSCTGSGFNIKDYYIHWVKQRTEQGLEWMGRIDPEDGETEYAPKFQDEATITSDTSSNTAYLQLSSLTYEDTAVYYCAREAAGYFYRGSSYGYFDVWGTGTTVTVSS
# VL: DFQMTQTTSFLSASLGDRVTISCSASQDISNYLNWYQQKPDGTVKLLIYYTSSLHSGVPSRFSGSGSGTDYSLTISNLEPEDIATYYCQQYSMLPYTFGGGTKLEMER
# notes: Chimeric IgG1 kappa
# B13: F1.257.3 (antibody, human IgG1, kappa, V domains shown)
# VH: QVQLQQSGPELARPGASVKLSCKASGYTFTSYGISWVKQRTGQDLEWIGEIYPKLGTTYYNEKFKDKATLTTDRSSSTAYMALRSLTSEDSAVYFCACPHYYATRGGDYWGQGTTLTVSS
# VL: EIVLTQSPATLSVTPGDSVTFSCRASQSISNHLHWYQQKSHESPRLLIRYASQSISGIPSRFSGSGSGTDFTLSLSSVETEDFGVYFCQQSHSWPYTFGGGTKLEIAR
# notes: Chimeric IgG1 kappa
# B14: F2.343.16 (antibody, human IgG1, lambda, V domains shown)
# VH: QVQLKQSGPGLVQPSQSLSITCTVSGFSLTGYGVQWVRQSPGKGLEWLGVIWGGGGTDYNAAFISRLNIIKDNSKSQVFFKMNSLQADDTAIYYCARYSKYGHFDVWGTGTAVTVSS
# VL: QAVVTQESALTTSPGETVTLTCRSSTGAVTTSNYANWVQEKPDHLFTGLIGGTYNRVPGVPARFSGSLIGDKAALTITGAQTEDEAIYFCALWYSNHFWVFGGGTKLTVLG
# notes: Chimeric IgG1 lambda
# Target: T1, human CD22 domain5-7-His
# Test: ELISA, plate coated with human CD22 domain5-7-His
row,Binder,binding result
1,B1,no binding
2,B2,no binding
3,B3,no binding
4,B4,no binding
5,B5,no binding
6,B6,no binding
7,B7,no binding
8,B8,no binding
9,B9,no binding
10,B10,no binding
11,B11,no binding
12,B12,no binding
13,B13,no binding
14,B14,no binding

# Target: T2, human CD22-ECD-His protein
# Test: SPR (Biacore), antibody captured on Protein A chip, CD22-ECD-His in solution
# Experimental: Sample buffer and running buffer were HBS-EP+(10 mM HEPES, 150 mM NaCl, 3 mM EDTA, 0.05% surfactant P20) (GE Healthcare; BR-1006-69). The flow-through cell was set to 25° C. The sample block was set to 16° C. Both were pretreated with the running buffer. In each cycle, the antibody to be tested was first captured with a Protein A chip, then a single concentration of CD22 antigen protein was injected. The binding and dissociation process of the antibody and the antigen protein was recorded, and finally Glycine pH 1.5 (GE Healthcare; BR-1003-54) was used to complete chip regeneration. Binding was measured by injecting different concentrations of recombinant human CD22-ECD His protein in solution for 240 s with a flow rate of 30 μL/min. The concentration started from 200 nM (see the detailed results for the actual concentration in the test) and was diluted at 1:1, making a total of 5 concentrations. The dissociation phase was monitored for up to 600 s and was triggered by switching from sample solution to running buffer. The surface was regenerated by washing with a 10 mM of glycine solution (pH 1.5) for 30 s at a flow rate of 30 μL/min. Bulk refractive index difference was corrected by subtracting the response obtained from the goat anti-human Fc surface. Blank injection was also subtracted (=double reference). For calculation of apparent KD and other kinetic parameters, Langmuir 1:1 model was used.
Binder,Kd [nM],koff [s⁻¹],kon [M⁻¹ s⁻¹]
B1,44.8,–,–
B2,10.7,0.000744,69500
B3,2.93,0.00066,226000
B4,8.54,0.00061,71400
B5,80,0.000393,4910
B6,1.7,0.000203,120000
B7,6.73,0.000423,62900
B8,29.3,0.000399,13600
B9,5.88,0.00118,201000
B10,0.586,7.42e-05,127000
B11,10,0.000663,66100
B12,0.458,0.00119,2.6e+06
B13,0.417,0.000113,270000
B14,4970,0.101,20400
